{"source": "the supplement of paper PMC9112550", "about": "“Optimization of the antimicrobial peptide Bac7 by deep mutational scanning” (BMC Biology, 2022);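 also: peptides expressed intracellularly from a pBAD plasmid library in pooled LB shake-flask culture, induced with 0.3% L-arabinose, DNA abundance read by NGS, three biological replicates, DESeq2 with apeglm shrinkage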", "data": [{"system": "Escherichia coli TOP10", "test": "shrunken log2 fold change of peptide-encoding DNA abundance (4.5 h post-induction vs induction); higher = less antimicrobial activity (less host growth inhibition)", "details": "time post-induction: 4.5 h; library: site-saturation at positions 5, 18, 19, 20", "values": [{"sequence": "RRIRWRPPRLPRPRPRPIHNPRP", "shrunken log2 fold change": -0.458}, {"sequence": "RRIRQRPPRLPRPRPRPGFIPRP", "shrunken log2 fold change": -0.408}, {"sequence": "RRIRLRPPRLPRPRPRPPHAPRP", "shrunken log2 fold change": 1.2}, {"sequence": "RRIRGRPPRLPRPRPRPSNWPRP", "shrunken log2 fold change": 1.12}, {"sequence": "RRIRKRPPRLPRPRPRPIPCPRP", "shrunken log2 fold change": 0.276}, {"sequence": "RRIRGRPPRLPRPRPRPWPPPRP", "shrunken log2 fold change": 0.663}, {"sequence": "RRIRLRPPRLPRPRPRPPTKPRP", "shrunken log2 fold change": 0.288}, {"sequence": "RRIRERPPRLPRPRPRPELAPRP", "shrunken log2 fold change": 0.161}, {"sequence": "RRIRWRPPRLPRPRPRPICSPRP", "shrunken log2 fold change": -0.199}, {"sequence": "RRIRKRPPRLPRPRPRPCRIPRP", "shrunken log2 fold change": -0.0405}, {"sequence": "RRIRVRPPRLPRPRPRPWNQPRP", "shrunken log2 fold change": 0.0232}, {"sequence": "RRIRRRPPRLPRPRPRPTLFPRP", "shrunken log2 fold change": 0.826}, {"sequence": "RRIRDRPPRLPRPRPRPQHHPRP", "shrunken log2 fold change": -0.299}, {"sequence": "RRIRSRPPRLPRPRPRPFPTPRP", "shrunken log2 fold change": -0.101}, {"sequence": "RRIRQRPPRLPRPRPRPNGSPRP", "shrunken log2 fold change": -0.00154}, {"sequence": "RRIRMRPPRLPRPRPRPSTVPRP", "shrunken log2 fold change": -0.0552}, {"sequence": "RRIRARPPRLPRPRPRPEEWPRP", "shrunken log2 fold change": 0.0407}, {"sequence": "RRIRQRPPRLPRPRPRPVYIPRP", "shrunken log2 fold change": -0.214}, {"sequence": "RRIRARPPRLPRPRPRPYKDPRP", "shrunken log2 fold change": -0.348}, {"sequence": "RRIRERPPRLPRPRPRPWFSPRP", "shrunken log2 fold change": -0.336}, {"sequence": "RRIRPRPPRLPRPRPRPATCPRP", "shrunken log2 fold change": 1.55}, {"sequence": "RRIRYRPPRLPRPRPRPRETPRP", "shrunken log2 fold change": -0.0404}, {"sequence": "RRIRNRPPRLPRPRPRPITMPRP", "shrunken log2 fold change": -0.533}, {"sequence": "RRIRTRPPRLPRPRPRPFYHPRP", "shrunken log2 fold change": -0.486}, {"sequence": "RRIRDRPPRLPRPRPRPMYMPRP", "shrunken log2 fold change": -0.00623}, {"sequence": "RRIRQRPPRLPRPRPRPYGYPRP", "shrunken log2 fold change": -0.354}, {"sequence": "RRIRERPPRLPRPRPRPAEKPRP", "shrunken log2 fold change": -0.0431}, {"sequence": "RRIRQRPPRLPRPRPRPTRCPRP", "shrunken log2 fold change": 0.747}, {"sequence": "RRIRQRPPRLPRPRPRPNTQPRP", "shrunken log2 fold change": -0.621}, {"sequence": "RRIRERPPRLPRPRPRPEELPRP", "shrunken log2 fold change": 0.174}, {"sequence": "RRIRYRPPRLPRPRPRPCIYPRP", "shrunken log2 fold change": -0.207}, {"sequence": "RRIRFRPPRLPRPRPRPMFSPRP", "shrunken log2 fold change": -0.0614}, {"sequence": "RRIRQRPPRLPRPRPRPAYFPRP", "shrunken log2 fold change": 0.191}, {"sequence": "RRIRDRPPRLPRPRPRPCQHPRP", "shrunken log2 fold change": -0.276}, {"sequence": "RRIRFRPPRLPRPRPRPPHGPRP", "shrunken log2 fold change": 0.364}, {"sequence": "RRIRPRPPRLPRPRPRPICHPRP", "shrunken log2 fold change": -0.0574}, {"sequence": "RRIRCRPPRLPRPRPRPPGWPRP", "shrunken log2 fold change": 0.612}, {"sequence": "RRIRTRPPRLPRPRPRPILFPRP", "shrunken log2 fold change": -0.209}, {"sequence": "RRIRPRPPRLPRPRPRPNFNPRP", "shrunken log2 fold change": -0.273}, {"sequence": "RRIRDRPPRLPRPRPRPEFQPRP", "shrunken log2 fold change": 0.4}, {"sequence": "RRIRHRPPRLPRPRPRPMLPPRP", "shrunken log2 fold change": -0.0141}, {"sequence": "RRIRSRPPRLPRPRPRPWKKPRP", "shrunken log2 fold change": -0.162}, {"sequence": "RRIRSRPPRLPRPRPRPEMFPRP", "shrunken log2 fold change": -0.0055}, {"sequence": "RRIRWRPPRLPRPRPRPNDNPRP", "shrunken log2 fold change": -0.425}, {"sequence": "RRIRIRPPRLPRPRPRPVQDPRP", "shrunken log2 fold change": -1.09}, {"sequence": "RRIRNRPPRLPRPRPRPPIHPRP", "shrunken log2 fold change": -0.582}, {"sequence": "RRIRFRPPRLPRPRPRPFWAPRP", "shrunken log2 fold change": 0.166}, {"sequence": "RRIRSRPPRLPRPRPRPSPAPRP", "shrunken log2 fold change": 0.242}, {"sequence": "RRIRERPPRLPRPRPRPWGSPRP", "shrunken log2 fold change": -0.0459}, {"sequence": "RRIRHRPPRLPRPRPRPSFRPRP", "shrunken log2 fold change": -0.15}, {"sequence": "RRIRHRPPRLPRPRPRPTMTPRP", "shrunken log2 fold change": -0.29}, {"sequence": "RRIRHRPPRLPRPRPRPWGIPRP", "shrunken log2 fold change": -0.0176}, {"sequence": "RRIRIRPPRLPRPRPRPEMAPRP", "shrunken log2 fold change": -0.061}, {"sequence": "RRIRLRPPRLPRPRPRPLMEPRP", "shrunken log2 fold change": -0.392}, {"sequence": "RRIRMRPPRLPRPRPRPEVEPRP", "shrunken log2 fold change": -0.0272}, {"sequence": "RRIRPRPPRLPRPRPRPVEHPRP", "shrunken log2 fold change": 0.00343}, {"sequence": "RRIRMRPPRLPRPRPRPAAGPRP", "shrunken log2 fold change": 1.56}, {"sequence": "RRIRPRPPRLPRPRPRPMDDPRP", "shrunken log2 fold change": 0.00641}, {"sequence": "RRIRRRPPRLPRPRPRPHTSPRP", "shrunken log2 fold change": -0.0729}, {"sequence": "RRIRVRPPRLPRPRPRPWHPPRP", "shrunken log2 fold change": -0.0956}]}]}
